Assay results from patent US20260250410A1 (SICHUAN HUIYU PHARMACEUTICAL, published 2026).
Changes are numbered by the printed parent chain.

B1: 1CP-152 (antibody, human IgG1, kappa, V domains shown)
VH: EVQLVESGGGLVQPGRSLRLSCTTSGLTFTHYHMSWVRQAPGKGLEWVAIIRNKAYGYTTDYSASVRGRFTISRDDSKSILYLQMNSLKTEDTAVYYCVREGGYGYDGTFAYWGQGTLVTVSS
VL: DIQMTQSPSSLSASVGDRVTITCRASESVDNYGISFMNWFQQKPGQAPKLLIYAASNQGSGVPSRFSGSGSGTDFTLTISSMQPEDFATYYCQQSKEVPRTFGGGTKVEIKR
notes: humanized 8C9, human IgG1 kappa
B2: 1CP-157 (antibody, human IgG1, kappa, V domains shown)
VH: B1 VH with L45P
VL: B1 VL with A47P
notes: as for B1
B3: 1CP-124 (antibody, human IgG1, kappa, V domains shown)
VH: QVQLVQSGAEVKKPGASVKVSCKASGYNFISYWLHWVRQAPGQGLEWMGGIYPGNTDTTYNQKFKGRVTMTRDTSTSTVYMELSSLRSEDTAVYYCIRYDYDRGMDYWGQGTLVTVSS
VL: DIQMTQSPSSLSASVGDRVTITCRASEDIYYRLAWYQQKPGKAPKLLISGATALETGVPSRFSGSGSGKDYTFTISSLQPEDIATYYCQHYWNIPWTFGQGTKVEIKR
notes: humanized 3C11, human IgG1 kappa
B4: 1CP-129 (antibody, human IgG1, kappa, V domains shown)
VH: B3 VH with R72A
VL: B3 VL with F73L
notes: as for B3
B5: 1CP-125 (antibody, human IgG1, kappa, V domains shown)
VH: B3 VH with R72A
VL: B3 VL
notes: as for B3
B6: 1CP-128 (antibody, human IgG1, kappa, V domains shown)
VH: B3 VH
VL: B3 VL with F73L
notes: as for B3

Key:
Test in all cases: SPR (Caterra), antigen immobilized
[1] = target: T1, HuCDCP1-B (human, UniProt Q9H5V8 343-667)
T1 construct: range 343-667; expressed in HEK-293T, purified by Fc/his tag; also called human CDCP1-B; membrane-proximal region of CDCP1; not shown: Fc or his tag
T1 sequence (looked up): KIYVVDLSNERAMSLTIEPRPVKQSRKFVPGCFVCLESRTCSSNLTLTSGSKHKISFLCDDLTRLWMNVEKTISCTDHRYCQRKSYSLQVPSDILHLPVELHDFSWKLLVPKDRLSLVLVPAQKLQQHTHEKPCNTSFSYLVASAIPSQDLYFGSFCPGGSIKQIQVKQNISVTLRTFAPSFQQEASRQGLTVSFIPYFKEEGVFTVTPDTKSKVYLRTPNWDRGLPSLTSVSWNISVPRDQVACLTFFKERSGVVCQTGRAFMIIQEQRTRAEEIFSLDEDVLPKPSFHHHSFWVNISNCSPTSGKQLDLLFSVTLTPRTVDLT
Procedure: (§1) The humanized anti-CDCP1 antibodies obtained from Example 11 were subjected to gene cloning, constructed into pTT5 expression vector for a small amount of expression in CHO cells (Expi-CHOS: Gibco A29127), and purified with an Fc affinity column (AT Protein A Diamond Plus. No. AA402312). Antibody purity was analyzed by HPLC and determined by Nanodrop. High-throughput affinity assay was carried out for a small amount of antibodies by Caterra.
(§2) Further, Partial anti-CDCP1 humanized antibodies were selected for expression, and then the affinity of the antibodies to the antigens Hu-CDCP1-A, Hu-CDCP1-B, Cyno-CDCP1, and Ms-CDCP1 was detected according to the above affinity detection method.

[2] = target: T2, CynoCDCP1 (Macaca fascicularis, UniProt A0A2K5VLA8 30-667)
T2 construct: extracellular domain; also called Macaca fascicularis CDCP1; monkey CDCP1; not shown: Fc or his tag
T2 sequence: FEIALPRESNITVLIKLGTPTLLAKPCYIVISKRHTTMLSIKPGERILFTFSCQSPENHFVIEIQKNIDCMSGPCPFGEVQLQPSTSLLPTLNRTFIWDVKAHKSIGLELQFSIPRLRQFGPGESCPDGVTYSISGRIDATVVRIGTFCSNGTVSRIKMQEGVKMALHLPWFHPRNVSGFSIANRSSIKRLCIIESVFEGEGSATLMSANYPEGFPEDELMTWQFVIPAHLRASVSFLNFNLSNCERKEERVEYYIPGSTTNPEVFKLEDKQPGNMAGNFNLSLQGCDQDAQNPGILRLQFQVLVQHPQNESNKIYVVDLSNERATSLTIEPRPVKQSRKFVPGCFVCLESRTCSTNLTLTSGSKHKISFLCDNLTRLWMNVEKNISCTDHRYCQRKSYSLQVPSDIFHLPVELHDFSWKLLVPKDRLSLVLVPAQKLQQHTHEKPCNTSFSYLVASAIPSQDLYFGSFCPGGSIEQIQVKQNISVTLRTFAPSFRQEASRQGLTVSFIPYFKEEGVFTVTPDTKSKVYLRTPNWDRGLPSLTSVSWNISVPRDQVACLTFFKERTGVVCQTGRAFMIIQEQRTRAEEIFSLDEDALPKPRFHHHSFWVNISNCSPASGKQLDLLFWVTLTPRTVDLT
Procedure: as §1, §2

[3] = target: T3, MsCDCP1 (mouse, UniProt Q5U462 30-666)
T3 construct: extracellular domain; also called mouse CDCP1; not shown: Fc or his tag
T3 sequence (looked up): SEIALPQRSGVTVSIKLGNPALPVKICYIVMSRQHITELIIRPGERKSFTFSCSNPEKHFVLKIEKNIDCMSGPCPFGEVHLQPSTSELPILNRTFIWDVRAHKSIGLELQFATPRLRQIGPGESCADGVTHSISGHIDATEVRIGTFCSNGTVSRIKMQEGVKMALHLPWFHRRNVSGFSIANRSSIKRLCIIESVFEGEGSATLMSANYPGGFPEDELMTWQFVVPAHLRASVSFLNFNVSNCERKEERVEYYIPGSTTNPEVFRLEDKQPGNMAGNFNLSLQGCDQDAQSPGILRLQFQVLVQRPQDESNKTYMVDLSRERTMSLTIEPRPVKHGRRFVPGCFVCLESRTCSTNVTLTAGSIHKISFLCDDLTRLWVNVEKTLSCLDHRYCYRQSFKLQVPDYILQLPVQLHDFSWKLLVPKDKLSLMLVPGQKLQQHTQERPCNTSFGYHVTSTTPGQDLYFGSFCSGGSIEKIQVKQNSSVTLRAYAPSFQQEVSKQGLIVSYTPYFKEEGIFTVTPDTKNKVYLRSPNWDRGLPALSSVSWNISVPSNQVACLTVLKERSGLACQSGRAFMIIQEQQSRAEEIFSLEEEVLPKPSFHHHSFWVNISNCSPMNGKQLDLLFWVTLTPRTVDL
Procedure: as §1, §2

Row | Binder | Kd [1] [nM] | Kd [2] [nM] | Kd [3] [nM] | binding result [3]
1 | B1 | 110 | 2.9 | 745 | –
2 | B2 | 359 | 2.6 | – | no binding (tested: 150 nM highest concentration)
3 | B3 | 100 | 24.2 | 274 | –
4 | B4 | 157 | 53.8 | – | no binding (tested: 150 nM highest concentration)
5 | B5 | 55.1 | 2.27 | – | no binding (tested: 150 nM highest concentration)
6 | B6 | 109 | 47.5 | – | no binding (tested: 150 nM highest concentration)
